System: [H][C@@](COCCCCCCCCCCCCCCCC)(COP(=O)([O-])OCC[N+](C)(C)C)SC(C)=O
Test: purified protein
Details: 20 mM Tris-HCl, pH 8.0, DTNB, room temperature, substrate concentrations corrected for early hydrolysis

Substance: SsE (Streptococcus pyogenes serotype M1)
- Km: 7.0 µM
- kcat: 69.6 s⁻¹

— PMC3320582, “Group A Streptococcus Secreted Esterase Hydrolyzes Platelet-Activating Factor to Impede Neutrophil Recruitment and Facilitate Innate Immune Evasion” (PLoS Pathogens, 2012)
